According to PMC4388176:

Target: T1, Reb1 (146-504) (Schizosaccharomyces pombe, UniProt Q9P6H9)
T1 sequence: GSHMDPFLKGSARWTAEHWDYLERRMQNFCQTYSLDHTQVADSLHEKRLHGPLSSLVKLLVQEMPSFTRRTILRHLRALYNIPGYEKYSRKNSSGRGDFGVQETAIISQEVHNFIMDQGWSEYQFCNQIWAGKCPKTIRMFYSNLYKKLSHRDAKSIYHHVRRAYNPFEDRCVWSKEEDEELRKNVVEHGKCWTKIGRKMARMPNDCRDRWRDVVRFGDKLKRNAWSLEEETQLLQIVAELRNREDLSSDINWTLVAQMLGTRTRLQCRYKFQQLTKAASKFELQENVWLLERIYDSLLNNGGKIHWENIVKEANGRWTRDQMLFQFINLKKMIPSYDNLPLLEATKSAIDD
Assay: X-ray crystallography

B1: Ter3 26-mer (crystal) (dsDNA)
DNA 1: GTAAAAGGTAAGGGTAATGCACTTTT
DNA 2: CAAAAGTGCATTACCCTTACCTTTTA
B1: binds.
